# Measurements as given in the nanobody polyreactivity screen of Harvey et al. (2022).
# Assay: yeast display, Sf9 membrane polyspecificity reagent, FACS + sequencing; frameworks hold sequencing errors
# Summary of the method: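 A synthetic nanobody library was expressed on Saccharomyces cerevisiae BJ5465 by galactose induction for 36–48 hours. The library was stained for 1 hour at 4 °C with 10% biotinylated, detergent-solubilized Sf9 membrane reagent and enriched with streptavidin microbeads before FACS. Low and high (top ~1%) gates were set on anti-HA fluorescence for expression and streptavidin fluorescence for reagent binding, and each polyreactivity label reflects the gate of origin.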
row,Sequence,polyreactivity (PSR sort gate)
1,QVQLVESGGGLVQAGGSLRLSCAASGRIFAYNAMGLYRQAPGKERELVADISSGGNTYYADSVKGRFTISRDNAKNTVYLQMNSLKPEDTAVYYCAKYTYDYWGQGTQVTVSS,low polyreactivity
2,QVQLVESGGGLVQAGGSLRLSCAASGRIFAYNAMGWYRQAPGKERELVAAITWSGDSTYYADSVKGRFTISRDNAKNSVYLQMNSLKPVDTAVYYCATDALFKTSTRWKYDYWGQGTQVTVSS,low polyreactivity
3,QVQLVESGGGLVQAGGSLRLSCAASGRIFAYNAMGWYRQAPGKERELVATITSSGDGTSYADSVKGRFTISRDNAKNTVYLQMNSLKPEDTAVYYCNKVTRVRRDPYDAVAYRGGYWGQGTQVTVSS,high polyreactivity
4,QVQLVESGGGLVQAGGSLRLSCAASGRIFAYNDMGWYRQAPGKEREFVAAITWSGTTFSADSVKGRFTISRDNAKNTVYLQMNSLNPEDTAVYYCAAVPYTRWKGADGDYDDVYTEYWGQGTQVTVSS,high polyreactivity
5,QVQLVESGGGLVQAGGSLRLSCAASGRIFAYNTMGWYRQAPGKEREMVAVITSGGSTNYADSVKGRFTISRDNAKITVYLQMNSLKPEDTAVYYCAKRPYGRSGGSRYDYWGHGTQVTVSS,high polyreactivity
6,QVQLVESGGGLVQAGGSLRLSCAASGRIFAYYAMGWYRQAPGKERELVAAITRRSGDTTYYADSVKGRFTISRDNAKNTVYLQMNSLKPEDTAVYYCAARNPSFSSQYYSWGQGTQVTVSS,high polyreactivity
7,QVQLVESGGGLVQAGGSLRLSCAASGRIFAYYAMGWYRQAPGKERELVATIRSGGDTNYADSVKGRFTISRDNAKNTVYLQMNSLKPEDTAVYYCNALYDWWYPHEYNYWGQGTQVTVSS,low polyreactivity
8,QVQLVESGGGLVQAGGSLRLSCAASGRIFCVYAMGWYRQAPGKERELVAAIDTSDGSTNYADSVKGRFTISRDNAKYTVYLQMNSLKPEDTAVYYCNATDSYVPFDYWGQGTQVTVSS,low polyreactivity
9,QVQLVESGGGLVQAGGSLRLSCAASGRIFDDNAMGWDRQAPGKETELVAAISASGGSTYYADSVKGRFTISRVNAKNTVYLQMNSLKPEDTAVYYCAKAPGQDTPYPYGYWGQGTQVTVSS,high polyreactivity
10,QVQLVESGGGLVQAGGSLRLSCAASGRIFDDNAMGWYRQAPGKERELVAAISSGDSTKYADSVKGRFTISRDNAKNTVYLQMNSLKPEDTAVYYCNRRKTNSRYDYWGQGTQVTVSS,low polyreactivity
11,QVQLVESGGGLVQAGGSLRLSCAASGRIFDGYAMGWNRKAPGKERELVPAISGGGNTKYADSEKGRFTISRDNAKNTVYLQMNSLKPEDTAVYYCAARGYYYGYRFDSWGQGTQVTVSS,high polyreactivity
12,QVQLVESGGGLVQAGGSLRLSCAASGRIFDGYAMGWYRQAPGKERELVASISYDGGSTYYADSVQGRFTISRDNAKNTVYLQMNSLKPEDTAVYYCAAVYRRRSYTFYYWGQGTQVTVSS,high polyreactivity
13,QVQLVESGGGLVQAGGSLRLSCAASGRIFDGYAMGWYRQAPGKERELVATITRGGSTNYADSVKRPFTISRDNAKNTVYIQMNSLKPEDTAVYYCNADIRRHGGYAHEYWGEGTQVTVSS,low polyreactivity
14,QVQLVESGGGLVQAGGSLRLSCAASGRIFDGYAMGWYRQAPGKESELVATIDVSGGRTTYADSVKGRFTISRDNAKNTVYLQMNSLKPEDTAVYYCNVDYYWSSGGTDYDYWGQGTQVTVSS,low polyreactivity
15,QVQLVESGGGLVQAGGSLRLSCAASGRIFDGYDMGWYRQAPGKERELVAAITSVGSTNYADSVKGRFTISRDNAKNTVYLQMNSLKPEDTAVYYCAAVLYVFYDEYGYWEYFSQYDYWGQGTQVTVSS,low polyreactivity
16,QVQLVESGGGLVQAGGSLRLSCAASGRIFDHNAMGWYRPAPGKERELVAAIDWSGGSTYYADSVKGRFTISRDNAKNTVYLQMNSLKPEDTAVYYCNVYWHTFSWDDYGYWGQGTQVTVSS,low polyreactivity
17,QVQLVESGGGLVQAGGSLRLSCAASGRIFDHYAMGWYRQAPGKERELVAAINSGGTTNYADSVKGRFTISRDNAKNTVYLQMNSLKPEETAVYYCAARPRKGQYYFGGNYWGQGTQVTVSS,low polyreactivity
18,QVQLVESGGGLVQAGGSLRLSCAASGRIFDIYAMGWYRQAPGKERELVATITRSAGRTYYADSVKGRFTISRDNAKNTVYLQMNSLKPEDTAVYFCAASYWDTEPGYREYEYWGQGTQVTVSS,low polyreactivity
19,QVQLVESGGGLVQAGGSLRLSCAASGRIFDIYTMGWYRQAPGKERELVASITKRGGSTYYADSVKGRFTISRDNAKNTVYLQMNSLKPEDTAVYYCNAVYSWYRRYGLEGYWGQGTQVTVSS,high polyreactivity
20,QVQLVESGGGLVQAGGSLRLSCAASGRIFDKYTMGWYRQAPGKERELVAAISKSGSGTFYADSVKGRFTISRDNAKNTVYLQMNSLKPEDTAVYYCARVYTVGTGRSWRLDYCGQGTQVTVSS,high polyreactivity

row,Sequence,polyreactivity (PSR sort gate)
1,QVQLVESGGGLVQAGGSLRLSCAASGRIFDLNAMGWYRQAPGKERELVAAITNTGSTNYADSVKGRFTISRDNAKNTVYLQMNSLKPEDTAVYYCARTYWLRYSGYRDDEYDYWGQGTQVTVSS,low polyreactivity
2,QVQLVESGGGLVQAGGSLRLSCAASGRIFDLNTMGWYRQAPGKERELVAAISSGGSTYYADSVKGRFTISRDNAKNTVYLQMNSLKPEDTAVYYCAADKIRGYRIRMYWGQGTQVTVSS,low polyreactivity
3,QVQLVESGGGLVQAGGSLRLSCAASGRIFDLNVMGWYRQAPGKERELVAAIRSGGRTNYADSVKGRFTISRDNAKNTVYLQMNSLKPEDTAVYYCNVRRGYWHPGYGWANYDYWGQGTQVTVSS,high polyreactivity
4,QVQLVESGGGLVQAGGSLRLSCAASGRIFDLYAMGWYRQAPGKEREFVAAISGRGGSTYYADSVKGRFTISRDNAKNTVYLQMNSLKPEDTAVYYCNAKRSLYGRYGYWGQGSQVTVSS,high polyreactivity
5,QVQLVESGGGLVQAGGSLRLSCAASGRIFDLYTMGWYRQATGKERELVAAIRWSDGSTYYADSVKGRFTISRDNAKNSVYLQMNSLKPVDTAVYYCAADTRTSYYNDDYDYWGQGTQVTVSS,low polyreactivity
6,QVQLVESGGGLVQAGGSLRLSCAASGRIFDPYAMGWYRQAPGKEREVVASISWSGGRTYYADSVKGRFTISRDNAKNTVYLQMNSLKPEDTAVYYCAARQWYRYKVRIDYWGQGTQVTVSS,high polyreactivity
7,QVQLVESGGGLVQAGGSLRLSCAASGRIFDPYTMGWYRQAPGKERELVAAISGRTGRTYYADSVKGRFTISRDNAKNTVYLQMNSLKPEDTAVYYCNAVRYVVLPGGPKFDYWGQGTQVTVSS,high polyreactivity
8,QVQLVESGGGLVQAGGSLRLSCAASGRIFDRYAMGWYRQAPGKERELVASITSSGGNTYYADSVKGRFTISRDNAKNTVYFQMNSLKPEDTAVYYCAKPQRVWQYGNYYYWGQGTQVTVSS,high polyreactivity
9,QVQLVESGGGLVQAGGSLRLSCAASGRIFDSYAMGSYRQAPGKERELVAVISNNDGTTYYADSVKGRFTISRDNEKNTVYLQMNSLKPEDTAVYYCAAEEPLFGYLWYVVTYAGIYDYWGQGSQVTVSS,low polyreactivity
10,QVQLVESGGGLVQAGGSLRLSCAASGRIFDSYTMGWYRQEPGKERELVAAISGGGITNYADSVKGRFTISRDNAKNTVYLQMNSLKPEDTAVYYCAARDRYYFGGMYYWGQGTQVTVSS,low polyreactivity
11,QVQLVESGGGLVQAGGSLRLSCAASGRIFDTNAMGWYRQAPGKEREFVAAISRSGGSTYYADSVKGRFTISRDNAKNTVYLQMNSLKPEDTAVYYCAARWYVLQPLGYDASRYGYWGQGTQVTVSS,high polyreactivity
12,QVQLVESGGGLVQAGGSLRLSCAASGRIFDTNFIGWYRLAPGKERELVAANSQSGGITYYADSVKGRFTISRDNAKKTVYLQMNSLKPEDTAVYYCAKDTVTVSFNEYDYWGQGTQVTVSS,low polyreactivity
13,QVQLVESGGGLVQAGGSLRLSCAASGRIFDTNVRGWSRQAPGKERELVAAISSGGSTYYADSVKGRFTISRDNAKTTVYLQMNSLKPEDTAVYYCAAESRTSRARRYYWGQGTQVTVSS,high polyreactivity
14,QVQLVESGGGLVQAGGSLRLSCAASGRIFDTYAMGWYRQAPGKERELVAAITRRGGSTYYADSVKGRFTISRDNAKNTVYLQMNSLKPEDTAVYYCAKSLVNRHYDYWGQGTQVTVSS,low polyreactivity
15,QVQLVESGGGLVQAGGSLRLSCAASGRIFDTYVMGWYRQAPGKERELVAAISRSGGSTYYADSVKGRFTISRDNAKNTVYLQMNSLKPEDTAVYYCNKLASWWSAYYNPYEYWGQGTQVTVSS,high polyreactivity
16,QVQLVESGGGLVQAGGSLRLSCAASGRIFDVYAMGWYRQAPGKERELVAAITWSGTSTYYADSVKGRFTISRDNAKNTVYLQKNSLKPEDTAVYYCAAEVAYTDTEYFWYYYWGQGTQVTVSS,high polyreactivity
17,QVQLVESGGGLVQAGGSLRLSCAASGRIFDVYAMGWYRQAPGKERELVATITCSGGGTYYADSVKGRFTISRDNAKNSVYLQMNSLKPEDTAVYYCAADYYPTYAYYVSNVGYDYWGQGTQVTVSS,low polyreactivity
18,QVQLVESGGGLVQAGGSLRLSCAASGRIFDWNMGWYRQAPGKERELVAGITFSVDSTYYADSVKGRFTISRDNAKNTVYLQMNSLKPEDTAYWGQGTQVTVSS,low polyreactivity
19,QVQLVESGGGLVQAGGSLRLSCAASGRIFDYAMGWYRQAPGKERELVAAISGSGGSTYYADSVKGRFTISRDNAKNTVYLQMNSLKPEDTAVYYCSTSGPQYYSRNFDYWGQGTQVTVSS,low polyreactivity
20,QVQLVESGGGLVQAGGSLRLSCAASGRIFDYNAMGWYRQAPGKERELVAAITSAGGTNYADSVKGRFTISRDNAKNTVYLQMNSLKPEDTAVYDCAADGSGYYDWYYYWGQGTQVTVSS,low polyreactivity
